Earlier results in patent US20020119915A1, “Nutritional intervention composition containing a source of proteinase inhibitor extending post meal satiety” (priority 1999, published 2002).

Tested on: humans
Conditions: injection, 1981 study

B1: Cholecystokinin (peptide, UniProt P06307 21-115, looked up)
Cholecystokinin: QPVPPADPAGSGLQRAEEAPRRQLRVSQRTDGESRAHLGALLARYIQQARKAPSGRMSIVKNLQNLDPSHRISDRDYMGWMDFGRRSAEEYEYPS
modifications: Cholecystokinin
For B1, the “Decrease of food intake” value is given as 16%.
